Results from paper PMC8041999.

Legend:
Assay in all cases: multiplexed single-antigen bead assay (Luminex); 5 µg PE-conjugated KIR tetramers, 30 min at room temperature, with LABScreen HLA Class I Single Antigen beads; MFI normalised to the highest value of each experiment
[1] = target: bead-bound HLA-C*17:01 presenting a broad repertoire of peptides (human)
[2] = target: bead-bound HLA-C*15:02 presenting a broad repertoire of peptides (human)
[3] = target: bead-bound HLA-C*14:02 presenting a broad repertoire of peptides (human)

soluble tetrameric form of KIR2DL2 (PE-conjugated KIR tetramer), sequence (P43627 22-245): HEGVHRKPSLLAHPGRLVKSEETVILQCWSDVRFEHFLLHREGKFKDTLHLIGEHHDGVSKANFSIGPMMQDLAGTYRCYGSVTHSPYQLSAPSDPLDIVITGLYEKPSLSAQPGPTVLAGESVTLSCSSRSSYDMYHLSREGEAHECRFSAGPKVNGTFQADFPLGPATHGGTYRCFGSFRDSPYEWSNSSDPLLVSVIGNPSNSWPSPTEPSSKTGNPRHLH
soluble tetrameric form of KIR2DL3 (PE-conjugated KIR tetramer), sequence (P43628 22-245): as the sequence (P43627 22-245) above, with R16P, E35Q, C148R, I200T, K216E counted along it

Substance	percent of the top avidity [1] [%]	percent of the top avidity [2] [%]	percent of the avidity of the top binding allomorph [3] [%]	percent of the maximum avidity [3] [%]
soluble tetrameric form of KIR2DL2 (PE-conjugated KIR tetramer) (from UniProt P43627 22-245) (receptor)	55	55	14.7	–
soluble tetrameric form of KIR2DL3 (PE-conjugated KIR tetramer) (from UniProt P43628 22-245) (receptor)	–	–	–	43
